This note sets out measurements from patent US20230128075A1 (University of Texas, published 2023).

The target in test [1] is T1, ADP-HSP70 (ADP-enriched HSP70) (Homo sapiens (Human), UniProt P0DMV8 1-641).
T1 construct: also called ADP-HSP70 complexes
The experiment in a line: BLI, 77A on sensor. How it is done:
HSP70 was expressed in SF9 cells. Affinity chromatography using resins selective for ADP or ATP-binding proteins were used to enrich bulk preparations of the correspondingly bound HSP70 recombinant protein. Protein concentrations, determined after elution, were measured so that equal concentrations could be used in subsequent assays. For BLI-based assays, antibodies and reagents were diluted out onto microwell plates and loaded into the instrument. Antibodies being tested were immobilized onto dip-and-read sensors and then observed for kinetics during binding to ATP or ADP-enriched HSP70. For ELISA, the relevant enriched HSP70 proteins were directly coated onto ELISA plate wells overnight. Test antibodies were then serially diluted across the plate wells, and detected using an appropriate secondary antibody-HRP conjugate. The plates were developed using a TMB substrate, and the O.D. stabilized using an acid stop solution.

The next test concerns the target T2, 614.
T2 construct: lane label in panel C
The experiment in a line: immunoprecipitation from cell lysate (CL) with 77A, Western blot GFP [panel C]. How it is done:
(§1) IP of cell extracts with 77A was followed by detection of proteins by Western blotting (WB) with an anti-GFP antibody (B). Smaller deletions were then generated for finer mapping (C), and the indicated IPs were performed from cell lysates (CL) or culture media supernatants (CM). Loading was confirmed with an a-light chain (LC) antibody. The putative binding domain for 77A is indicated on a molecular model of HSP70 representing the relevant region of the protein (D). The exact amino acids that comprise the 77A epitope were determined using alanine scanning analysis, and the results are shown in (E), and the ribbon diagram showing the primary and secondary critical sites is shown in (F).
(§2) Alanine scanning analysis was performed to identify key amino acids in HSP70 with which 77A interacts (FIG. 3E).

For the next test, the target named is T3, 534.
T3 construct: lane label in panels A and B
Briefly: immunoprecipitation of cell extracts with 77A, Western blot with anti-GFP [panel B]. The protocol:
as §1, §2

Some results are limits rather than exact numbers.

T2 sequence (chain, as listed by the source limits assumed): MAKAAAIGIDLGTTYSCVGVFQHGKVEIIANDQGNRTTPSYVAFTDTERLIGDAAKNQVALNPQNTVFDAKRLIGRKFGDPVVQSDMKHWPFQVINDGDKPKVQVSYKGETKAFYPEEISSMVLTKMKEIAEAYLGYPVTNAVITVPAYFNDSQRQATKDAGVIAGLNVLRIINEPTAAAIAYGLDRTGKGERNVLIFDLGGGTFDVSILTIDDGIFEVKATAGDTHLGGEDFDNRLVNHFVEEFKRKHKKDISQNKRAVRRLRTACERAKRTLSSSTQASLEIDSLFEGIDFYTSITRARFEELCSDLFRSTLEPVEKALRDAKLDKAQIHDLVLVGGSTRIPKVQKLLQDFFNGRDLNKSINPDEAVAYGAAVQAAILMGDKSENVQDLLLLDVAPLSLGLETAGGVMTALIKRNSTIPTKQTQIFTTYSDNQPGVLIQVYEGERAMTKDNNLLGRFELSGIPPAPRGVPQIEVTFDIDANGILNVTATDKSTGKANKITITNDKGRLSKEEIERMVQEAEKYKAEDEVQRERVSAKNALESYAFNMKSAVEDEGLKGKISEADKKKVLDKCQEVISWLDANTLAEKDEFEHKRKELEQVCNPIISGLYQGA
T1 sequence (P0DMV8 whole entry): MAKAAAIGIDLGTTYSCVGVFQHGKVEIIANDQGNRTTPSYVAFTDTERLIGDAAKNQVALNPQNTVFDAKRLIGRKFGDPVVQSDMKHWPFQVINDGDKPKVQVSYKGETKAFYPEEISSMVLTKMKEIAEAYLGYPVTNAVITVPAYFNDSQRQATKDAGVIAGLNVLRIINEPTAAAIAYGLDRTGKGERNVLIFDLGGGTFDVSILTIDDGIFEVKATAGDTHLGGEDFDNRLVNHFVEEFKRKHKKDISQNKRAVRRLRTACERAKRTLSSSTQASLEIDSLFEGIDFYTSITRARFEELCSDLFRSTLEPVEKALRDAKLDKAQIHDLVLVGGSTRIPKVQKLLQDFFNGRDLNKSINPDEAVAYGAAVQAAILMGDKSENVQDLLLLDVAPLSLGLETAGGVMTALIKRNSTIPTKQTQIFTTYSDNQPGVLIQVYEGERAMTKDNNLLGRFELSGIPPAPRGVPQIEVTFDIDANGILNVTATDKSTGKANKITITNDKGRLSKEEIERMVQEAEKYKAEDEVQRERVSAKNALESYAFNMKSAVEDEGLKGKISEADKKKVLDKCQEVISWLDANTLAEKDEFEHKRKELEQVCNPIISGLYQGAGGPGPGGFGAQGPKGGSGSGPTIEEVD
T3 sequence (chain, as listed by the source limits assumed): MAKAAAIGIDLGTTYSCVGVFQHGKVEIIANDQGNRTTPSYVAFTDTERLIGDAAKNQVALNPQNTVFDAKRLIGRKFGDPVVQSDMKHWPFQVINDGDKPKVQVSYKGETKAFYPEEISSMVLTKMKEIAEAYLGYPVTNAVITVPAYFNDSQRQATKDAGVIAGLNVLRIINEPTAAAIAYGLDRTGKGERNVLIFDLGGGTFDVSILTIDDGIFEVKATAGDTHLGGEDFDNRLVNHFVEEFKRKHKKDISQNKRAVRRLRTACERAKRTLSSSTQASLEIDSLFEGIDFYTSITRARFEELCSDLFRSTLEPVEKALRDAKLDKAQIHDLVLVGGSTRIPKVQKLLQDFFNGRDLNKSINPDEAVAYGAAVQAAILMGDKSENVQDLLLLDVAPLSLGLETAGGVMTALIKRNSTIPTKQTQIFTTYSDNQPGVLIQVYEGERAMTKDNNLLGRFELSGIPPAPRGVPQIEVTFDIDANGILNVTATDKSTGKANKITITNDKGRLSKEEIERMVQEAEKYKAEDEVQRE

B1: 77A antibody (clone 77A, murine anti-HSP70 mAb) (antibody, V domains shown)
VH: QIQLVQSGPELKKPGETVKISCKASGYTFTNYGMNWVKQAPGKGLKWMGWINTYTGEPTYADDFKGRFAFSLETSATTAYLQINNLKNEDTATYFCARYDHAMDYWGQGTSVTVSS
VL: DIVMSQSPSSLAVSAGEKVTMSCKSSQSLLNSGTRKNYLAWYQQKPGQSPKLLIYWTSTRESGVPDRFTGSGSGTDFTLTINSVQAEDLAVYYCKQSYTLYTFGGGTKLEIK
notes: Murine hybridoma mAb; its isotype control is IgG2B; also called mAb 77A
B1: the “fold greater affinity (KD) than for ATP-enriched HSP70” value in test [1] was no less than 4 fold. Moreover, the binding result with 614 and in the test with 534 was “binds” throughout.
